Source: PMC5603883, “Challenges to Design and Develop of DNA Aptamers for Protein Targets. II. Development of the Aptameric Affinity Ligands Specific to Human Plasma Coagulation Factor VIII Using SEC-SELEX”

Target: coagulation factor VIII (plasma-derived, Haemoctin 500) (Homo sapiens, UniProt P00451 20-2351)
Assay: nitrocellulose filter binding, fluorescence of filtrate; 5 mM CaCl2, 5 mM MgCl2; Tris 40 mM, NaCl 117 mM, CaCl2 5 mM, MgCl2 5 mM, pH 7.4; selection at 4 °C, Kd assay temperature not stated; FVIII 20 ng (700 pM), DNA 0.5-700 nM
Settings: protein: commercial; label: fluorescein via labelled reverse primer (S3) stated for the labelling PCR; the labelled strand is not explicitly specified; predicted three-branch stem-loop

coagulation factor VIII (plasma-derived, Haemoctin 500), sequence (P00451 20-2351): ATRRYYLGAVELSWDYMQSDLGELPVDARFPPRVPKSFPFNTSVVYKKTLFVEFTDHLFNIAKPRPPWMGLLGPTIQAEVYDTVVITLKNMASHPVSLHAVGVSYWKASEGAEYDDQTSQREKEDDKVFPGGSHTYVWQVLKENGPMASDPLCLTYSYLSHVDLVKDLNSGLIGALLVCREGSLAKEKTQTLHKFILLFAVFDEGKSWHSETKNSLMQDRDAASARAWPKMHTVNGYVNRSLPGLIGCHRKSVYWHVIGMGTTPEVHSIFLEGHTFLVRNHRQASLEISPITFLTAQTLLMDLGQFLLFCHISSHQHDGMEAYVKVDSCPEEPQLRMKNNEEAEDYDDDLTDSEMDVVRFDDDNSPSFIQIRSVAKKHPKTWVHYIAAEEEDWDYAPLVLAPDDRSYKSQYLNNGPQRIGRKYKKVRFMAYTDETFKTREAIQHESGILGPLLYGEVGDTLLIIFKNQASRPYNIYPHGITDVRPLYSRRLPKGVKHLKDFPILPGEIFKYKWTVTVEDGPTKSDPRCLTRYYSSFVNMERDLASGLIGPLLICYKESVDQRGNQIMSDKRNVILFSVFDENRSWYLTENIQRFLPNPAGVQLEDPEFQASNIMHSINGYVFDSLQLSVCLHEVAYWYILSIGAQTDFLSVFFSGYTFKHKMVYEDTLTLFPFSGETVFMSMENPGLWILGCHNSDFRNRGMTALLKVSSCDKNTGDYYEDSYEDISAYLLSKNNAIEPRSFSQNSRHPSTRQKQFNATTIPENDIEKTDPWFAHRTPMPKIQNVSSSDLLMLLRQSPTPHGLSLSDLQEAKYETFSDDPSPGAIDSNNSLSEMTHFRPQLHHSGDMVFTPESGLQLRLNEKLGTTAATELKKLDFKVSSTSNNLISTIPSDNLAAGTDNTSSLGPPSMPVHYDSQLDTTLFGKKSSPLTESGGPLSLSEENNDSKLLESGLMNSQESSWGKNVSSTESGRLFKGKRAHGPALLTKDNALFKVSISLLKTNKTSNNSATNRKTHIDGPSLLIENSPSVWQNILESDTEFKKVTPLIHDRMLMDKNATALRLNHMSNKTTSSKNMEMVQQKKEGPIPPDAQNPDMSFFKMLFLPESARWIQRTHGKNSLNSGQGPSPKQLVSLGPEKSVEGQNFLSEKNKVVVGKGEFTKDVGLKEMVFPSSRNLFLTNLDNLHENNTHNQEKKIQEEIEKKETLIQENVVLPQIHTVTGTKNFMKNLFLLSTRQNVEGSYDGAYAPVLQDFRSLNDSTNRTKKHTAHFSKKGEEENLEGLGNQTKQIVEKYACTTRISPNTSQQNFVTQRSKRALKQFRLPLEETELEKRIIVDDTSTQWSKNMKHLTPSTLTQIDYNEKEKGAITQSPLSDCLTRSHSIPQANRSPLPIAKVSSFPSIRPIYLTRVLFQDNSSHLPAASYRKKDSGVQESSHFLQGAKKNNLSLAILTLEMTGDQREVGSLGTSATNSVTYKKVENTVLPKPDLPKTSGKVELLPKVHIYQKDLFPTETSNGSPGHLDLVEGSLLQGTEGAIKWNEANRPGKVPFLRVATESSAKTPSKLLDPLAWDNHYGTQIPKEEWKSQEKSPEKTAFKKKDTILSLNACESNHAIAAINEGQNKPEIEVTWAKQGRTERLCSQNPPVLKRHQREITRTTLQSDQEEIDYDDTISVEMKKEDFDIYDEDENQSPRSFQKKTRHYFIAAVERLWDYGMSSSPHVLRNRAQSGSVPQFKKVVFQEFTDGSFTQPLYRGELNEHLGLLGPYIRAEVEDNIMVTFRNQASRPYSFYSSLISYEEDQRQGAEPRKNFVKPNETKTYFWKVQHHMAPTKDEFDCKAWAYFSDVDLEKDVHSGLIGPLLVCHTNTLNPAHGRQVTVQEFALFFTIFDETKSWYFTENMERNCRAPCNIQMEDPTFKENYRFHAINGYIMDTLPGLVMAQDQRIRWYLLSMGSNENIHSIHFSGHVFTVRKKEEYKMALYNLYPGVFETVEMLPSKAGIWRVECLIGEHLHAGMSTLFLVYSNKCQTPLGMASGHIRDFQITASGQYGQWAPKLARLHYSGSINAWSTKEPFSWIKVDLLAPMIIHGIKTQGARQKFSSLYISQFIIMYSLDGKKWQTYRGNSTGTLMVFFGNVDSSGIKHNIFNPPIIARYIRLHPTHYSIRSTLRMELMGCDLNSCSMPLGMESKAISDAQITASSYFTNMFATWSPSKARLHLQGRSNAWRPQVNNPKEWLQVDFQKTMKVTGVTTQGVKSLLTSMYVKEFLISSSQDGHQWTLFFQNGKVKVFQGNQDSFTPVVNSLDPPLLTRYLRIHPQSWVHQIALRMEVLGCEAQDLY

B1: FVIII aptamer (full-length clone, 77 nt) (ssDNA)
DNA: GGTGTTACTCTTCATGTGGATCCGTACGTCCTGGGCTTCTTGATCGTCAGCCGAAGAATTCAGCACCCTAGCCTCGT
Kd: 925 ± 11.6 nM
